Test results taken from the supplement of paper PMC7877785.
± gives the uncertainty stated by the source.

Experiment: self-splicing fitness, log relative to wild type (ln ratio); higher = more splicing; Tetrahymena group I intron in knt gene, E. coli kanamycin selection, DiMSum; sequences stand for … in CUCUCU…GGAGGGAAAAGUUAUCAGGCAUGCACCUGGUAGCUAGUCUUUAAACCAAUAGAUUGCAUCGGUUUAAAAGGCAAGACCGUCAAAUUGCGGGAAAGGGGUCAACAGCCGUUCAGUACCAAGUCUCAGGGGAAACUUUGAGAUGGCCUUGCAAAGGGUAUGGUAAUAAGCUGACGGACAUGGUCCUAACCACGCAGCCAAGUCCUAAGUCAACAGAUCUUCUGUUGAUAUGGAUGCAGUUCACAGACUAAAUGUCGGUCGGGGAAGAUGUAUUCUUCUCAUAAGAUAUAGUCGGACCUCUCCUUAAUGGGAGCUAGCGGAUGAAGUGAUGCAACACUGGAGCCGCUGGGAACUAAUUUGUAUGCGAAAGUAUAUUGAUUAGUUUUGGAGUACUCGUGGUCG
Summary of the method: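 Six replicate transformations of E. coli BL21(DE3) with a pET-22b(+) library were grown overnight at 37°C or 30°C. The library randomised all eight P1ex-region intron nucleotides, the intron lying in the knt kanamycin-resistance gene, and plates were LB agar with or without 25 μg/mL kanamycin plus 100 μg/mL carbenicillin, 50 μM IPTG and 0.2% rhamnose. Pooled colonies were amplicon-sequenced on an Illumina HiSeq 2500, and fitness is the DiMSum error-weighted combination of wild-type-normalised replicate fold changes, kanamycin versus none.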

UCAGAGCAAUAUUACGCCGU
self-splicing fitness (ln) (37 °C): -3.02 ± 0.43

UCACAGCAAUAUUACGUGGC
self-splicing fitness (ln) (30 °C): -3.08 ± 0.18
self-splicing fitness (ln) (37 °C): -2.83 ± 0.26

UAUUAGCAAUAUUACGACCA
self-splicing fitness (ln) (30 °C): -0.42 ± 0.18
self-splicing fitness (ln) (37 °C): -0.894 ± 0.19

UAAGAGCAAUAUUACGAUCC
self-splicing fitness (ln) (30 °C): -1.81 ± 0.36

UUCAAGCAAUAUUACGCCCA
self-splicing fitness (ln) (30 °C): -0.837 ± 0.24
self-splicing fitness (ln) (37 °C): 0.3 ± 0.21

AUCGAGCAAUAUUACGCUUA
self-splicing fitness (ln) (30 °C): -2.01 ± 0.18
self-splicing fitness (ln) (37 °C): -0.429 ± 0.13

AACUAGCAAUAUUACGAGGA
self-splicing fitness (ln) (30 °C): -1.71 ± 0.1
self-splicing fitness (ln) (37 °C): -1.89 ± 0.11

CCAAAGCAAUAUUACGCAAC
self-splicing fitness (ln) (30 °C): -1.96 ± 0.1
self-splicing fitness (ln) (37 °C): -2.53 ± 0.23

CGAAAGCAAUAUUACGGUAC
self-splicing fitness (ln) (30 °C): -2.51 ± 0.29

UGAAAGCAAUAUUACGACCG
self-splicing fitness (ln) (30 °C): -0.0402 ± 0.16
self-splicing fitness (ln) (37 °C): 0.0392 ± 0.2

CACUAGCAAUAUUACGCUUA
self-splicing fitness (ln) (30 °C): -2.65 ± 0.21
self-splicing fitness (ln) (37 °C): -1.2 ± 0.13

AGAUAGCAAUAUUACGCAGG
self-splicing fitness (ln) (30 °C): -1.91 ± 0.17
self-splicing fitness (ln) (37 °C): -0.155 ± 0.19

AUAUAGCAAUAUUACGCUAC
self-splicing fitness (ln) (30 °C): -2.34 ± 0.33

GUAAAGCAAUAUUACGGGCA
self-splicing fitness (ln) (30 °C): -0.131 ± 0.13
self-splicing fitness (ln) (37 °C): -0.0319 ± 0.15

AGCCAGCAAUAUUACGCGGU
self-splicing fitness (ln) (30 °C): -2.93 ± 0.28
self-splicing fitness (ln) (37 °C): -2.29 ± 0.33

UUAAAGCAAUAUUACGUUAG
self-splicing fitness (ln) (30 °C): -0.59 ± 0.095
self-splicing fitness (ln) (37 °C): -0.125 ± 0.097

CCCCAGCAAUAUUACGAAGC
self-splicing fitness (ln) (30 °C): -4.34 ± 0.31
self-splicing fitness (ln) (37 °C): -3.28 ± 0.3

GACCAGCAAUAUUACGAUUU
self-splicing fitness (ln) (30 °C): 0.0538 ± 0.046
self-splicing fitness (ln) (37 °C): 0.446 ± 0.065

GUAAAGCAAUAUUACGGAGG
self-splicing fitness (ln) (30 °C): -3.29 ± 0.37
self-splicing fitness (ln) (37 °C): -2.45 ± 0.38

CACUAGCAAUAUUACGCCUA
self-splicing fitness (ln) (30 °C): -3.31 ± 0.19
self-splicing fitness (ln) (37 °C): -2.36 ± 0.16

CAAAAGCAAUAUUACGAUAC
self-splicing fitness (ln) (30 °C): -2.95 ± 0.15
self-splicing fitness (ln) (37 °C): -2.53 ± 0.2

UCGCAGCAAUAUUACGAUGU
self-splicing fitness (ln) (30 °C): -2.15 ± 0.18
self-splicing fitness (ln) (37 °C): -2.31 ± 0.28

GGUCAGCAAUAUUACGUGAA
self-splicing fitness (ln) (30 °C): -0.356 ± 0.086
self-splicing fitness (ln) (37 °C): 0.381 ± 0.096

CUGGAGCAAUAUUACGGUUU
self-splicing fitness (ln) (30 °C): -2.21 ± 0.15
self-splicing fitness (ln) (37 °C): -2.43 ± 0.26

GGAAAGCAAUAUUACGCGAA
self-splicing fitness (ln) (30 °C): -1.66 ± 0.17
self-splicing fitness (ln) (37 °C): -1.19 ± 0.13

CGCGAGCAAUAUUACGGAGC
self-splicing fitness (ln) (37 °C): -1.99 ± 0.26

CUAGAGCAAUAUUACGGGUA
self-splicing fitness (ln) (30 °C): -3.53 ± 0.36
self-splicing fitness (ln) (37 °C): -2.3 ± 0.36

CCCCAGCAAUAUUACGAAUA
self-splicing fitness (ln) (37 °C): -1.41 ± 0.21

UAACAGCAAUAUUACGGCCA
self-splicing fitness (ln) (30 °C): -0.28 ± 0.066
self-splicing fitness (ln) (37 °C): -0.439 ± 0.071

UAGGAGCAAUAUUACGCAUG
self-splicing fitness (ln) (30 °C): -1.64 ± 0.2
self-splicing fitness (ln) (37 °C): 0.135 ± 0.15

UUUGAGCAAUAUUACGACAA
self-splicing fitness (ln) (30 °C): -1.26 ± 0.16
self-splicing fitness (ln) (37 °C): -0.94 ± 0.17

GCAUAGCAAUAUUACGACGA
self-splicing fitness (ln) (30 °C): -1.06 ± 0.14
self-splicing fitness (ln) (37 °C): -0.364 ± 0.14

GCCGAGCAAUAUUACGCCUC
self-splicing fitness (ln) (30 °C): -2.91 ± 0.42
self-splicing fitness (ln) (37 °C): -1.88 ± 0.4

GAAUAGCAAUAUUACGGAAA
self-splicing fitness (ln) (30 °C): -1.98 ± 0.16
self-splicing fitness (ln) (37 °C): -1.31 ± 0.14

UAGGAGCAAUAUUACGUGUA
self-splicing fitness (ln) (30 °C): -2.02 ± 0.13
self-splicing fitness (ln) (37 °C): -1.63 ± 0.12

AUCUAGCAAUAUUACGGUCC
self-splicing fitness (ln) (30 °C): -1.34 ± 0.21
self-splicing fitness (ln) (37 °C): 1.22 ± 0.25

GGAAAGCAAUAUUACGUUAG
self-splicing fitness (ln) (30 °C): -3.14 ± 0.16
self-splicing fitness (ln) (37 °C): -1.9 ± 0.15

CCCUAGCAAUAUUACGUCUU
self-splicing fitness (ln) (30 °C): -2.95 ± 0.13
self-splicing fitness (ln) (37 °C): -2.54 ± 0.25

CUGAAGCAAUAUUACGUCGU
self-splicing fitness (ln) (30 °C): -3.23 ± 0.26
self-splicing fitness (ln) (37 °C): -1.79 ± 0.21

GAAAAGCAAUAUUACGAUAC
self-splicing fitness (ln) (30 °C): -1.21 ± 0.25
self-splicing fitness (ln) (37 °C): -0.873 ± 0.22
